Values belong to the sequence of their own block, whether it stands above or below them.
Legend:
[1] = tested on: AncSZ; assay: phosphorylation enrichment, bacterial display (enrichment ratio); higher = better substrate or ligand; peptides without Tyr show the background
[2] = target: EPHB1 (UniProt P54762); assay: as above
[3] = target: EPHB2 (UniProt P29323); assay: as above
[4] = target: FGFR1 (UniProt P11362); assay: as above
[5] = target: FGFR3 (UniProt P22607); assay: as above
[6] = tested on: Fer (mouse); assay: as above
[7] = target: Fes (UniProt P07332); assay: as above
Sequence of Fes (P07332 whole entry, looked up): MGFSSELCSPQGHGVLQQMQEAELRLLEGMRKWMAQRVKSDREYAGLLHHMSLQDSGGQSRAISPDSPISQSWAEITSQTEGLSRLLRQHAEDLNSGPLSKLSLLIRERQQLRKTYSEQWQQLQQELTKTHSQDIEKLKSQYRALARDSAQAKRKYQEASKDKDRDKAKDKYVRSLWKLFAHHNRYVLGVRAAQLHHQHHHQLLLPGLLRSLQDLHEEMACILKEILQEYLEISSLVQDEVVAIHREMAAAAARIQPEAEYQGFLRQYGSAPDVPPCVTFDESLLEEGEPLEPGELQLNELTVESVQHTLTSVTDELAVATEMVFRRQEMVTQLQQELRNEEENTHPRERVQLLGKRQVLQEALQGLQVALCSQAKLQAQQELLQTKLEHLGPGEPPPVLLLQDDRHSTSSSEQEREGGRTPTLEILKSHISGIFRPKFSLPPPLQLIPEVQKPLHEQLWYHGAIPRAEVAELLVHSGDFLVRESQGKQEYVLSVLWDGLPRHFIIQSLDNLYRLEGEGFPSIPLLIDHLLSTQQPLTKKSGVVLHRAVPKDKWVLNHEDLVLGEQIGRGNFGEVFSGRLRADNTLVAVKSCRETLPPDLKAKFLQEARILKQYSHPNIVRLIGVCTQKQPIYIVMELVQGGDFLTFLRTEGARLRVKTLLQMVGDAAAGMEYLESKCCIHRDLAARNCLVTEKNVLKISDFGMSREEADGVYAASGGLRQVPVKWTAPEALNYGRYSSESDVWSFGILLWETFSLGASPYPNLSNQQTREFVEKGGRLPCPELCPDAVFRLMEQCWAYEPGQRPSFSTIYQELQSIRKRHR

[8] = target: Fyn (UniProt P06241); assay: as above
Sequence of Fyn (P06241 whole entry, looked up): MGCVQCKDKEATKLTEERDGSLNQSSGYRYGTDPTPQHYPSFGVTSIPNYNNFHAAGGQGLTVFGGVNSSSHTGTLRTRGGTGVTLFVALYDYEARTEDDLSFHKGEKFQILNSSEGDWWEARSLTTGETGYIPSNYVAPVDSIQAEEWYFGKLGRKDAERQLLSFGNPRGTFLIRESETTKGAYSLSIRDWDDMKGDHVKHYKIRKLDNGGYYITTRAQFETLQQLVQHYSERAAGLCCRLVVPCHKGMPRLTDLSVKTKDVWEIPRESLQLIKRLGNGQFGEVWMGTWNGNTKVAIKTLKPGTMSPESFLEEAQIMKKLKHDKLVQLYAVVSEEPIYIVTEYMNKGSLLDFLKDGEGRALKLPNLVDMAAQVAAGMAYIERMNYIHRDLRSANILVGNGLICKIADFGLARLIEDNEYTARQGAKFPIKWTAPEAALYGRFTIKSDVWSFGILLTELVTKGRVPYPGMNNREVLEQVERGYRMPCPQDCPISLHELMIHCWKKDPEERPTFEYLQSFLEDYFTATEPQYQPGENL

[9] = target: Hck (UniProt P08631); assay: as above
Sequence of Hck (P08631 whole entry, looked up): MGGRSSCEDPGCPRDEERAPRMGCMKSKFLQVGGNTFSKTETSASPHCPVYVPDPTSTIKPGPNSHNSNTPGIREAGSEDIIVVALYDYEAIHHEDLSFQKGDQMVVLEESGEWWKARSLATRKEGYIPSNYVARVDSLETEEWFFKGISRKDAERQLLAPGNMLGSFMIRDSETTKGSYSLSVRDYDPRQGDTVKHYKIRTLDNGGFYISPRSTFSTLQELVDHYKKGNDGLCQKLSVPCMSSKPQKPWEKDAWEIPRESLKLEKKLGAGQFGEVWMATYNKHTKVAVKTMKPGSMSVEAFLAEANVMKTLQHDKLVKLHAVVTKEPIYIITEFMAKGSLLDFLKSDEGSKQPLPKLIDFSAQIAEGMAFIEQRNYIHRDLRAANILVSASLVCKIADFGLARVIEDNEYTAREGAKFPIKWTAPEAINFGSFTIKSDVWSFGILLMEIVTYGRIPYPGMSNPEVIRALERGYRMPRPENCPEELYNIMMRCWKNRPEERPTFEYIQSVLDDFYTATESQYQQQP

[10] = target: Jak2 (UniProt O60674); assay: as above
[11] = target: MERTK (UniProt Q12866); assay: as above
Sequence of MERTK (Q12866 whole entry, looked up): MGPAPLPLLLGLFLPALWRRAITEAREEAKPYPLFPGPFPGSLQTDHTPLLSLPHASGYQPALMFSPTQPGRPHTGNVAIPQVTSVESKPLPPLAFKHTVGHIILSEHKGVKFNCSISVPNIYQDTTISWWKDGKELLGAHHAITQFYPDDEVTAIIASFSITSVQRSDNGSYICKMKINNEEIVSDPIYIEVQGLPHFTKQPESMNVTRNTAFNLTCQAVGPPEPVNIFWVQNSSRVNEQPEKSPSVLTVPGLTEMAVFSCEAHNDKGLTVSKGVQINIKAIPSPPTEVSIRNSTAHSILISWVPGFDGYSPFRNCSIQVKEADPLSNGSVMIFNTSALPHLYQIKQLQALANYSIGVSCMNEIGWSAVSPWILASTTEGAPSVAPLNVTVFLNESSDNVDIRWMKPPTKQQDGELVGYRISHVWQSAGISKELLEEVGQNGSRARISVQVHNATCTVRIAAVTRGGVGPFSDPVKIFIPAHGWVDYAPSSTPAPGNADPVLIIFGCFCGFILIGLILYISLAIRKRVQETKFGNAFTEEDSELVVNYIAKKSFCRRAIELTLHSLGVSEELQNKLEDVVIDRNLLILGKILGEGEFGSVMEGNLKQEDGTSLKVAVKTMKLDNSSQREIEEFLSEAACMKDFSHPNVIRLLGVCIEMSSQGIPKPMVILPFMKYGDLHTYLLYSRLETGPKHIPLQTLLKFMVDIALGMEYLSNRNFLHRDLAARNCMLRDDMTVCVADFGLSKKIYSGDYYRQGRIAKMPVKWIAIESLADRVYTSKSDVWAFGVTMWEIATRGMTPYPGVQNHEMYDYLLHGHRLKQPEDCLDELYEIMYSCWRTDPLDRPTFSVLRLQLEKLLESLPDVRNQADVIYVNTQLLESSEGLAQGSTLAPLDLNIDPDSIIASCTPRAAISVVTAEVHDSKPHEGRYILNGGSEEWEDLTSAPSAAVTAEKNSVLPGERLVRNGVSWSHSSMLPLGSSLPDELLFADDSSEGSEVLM

[12] = tested on: c-Abl (mouse); assay: as above
[13] = tested on: c-Src; assay: as above
[14] = target: Grb2 SH2 (UniProt P62993); assay: SH2 binding enrichment of the phosphorylated peptide, bacterial display (enrichment ratio); higher = better substrate or ligand; peptides without Tyr show the background
[15] = target: SHP2-C SH2; assay: as above
[16] = target: c-Src SH2; assay: as above
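Wherever SH2 binding enrichment of the phosphorylated peptide, bacterial display is given: peptide library displayed on the E. coli surface as eCPX fusions, selected cells deep-sequenced, score is each peptide's frequency after selection divided by its frequency in the input.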
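Wherever phosphorylation enrichment, bacterial display is given: 11-residue human phosphosite peptides and single-mutation variants displayed on the E. coli surface, counted by deep sequencing, each peptide's frequency after selection divided by its frequency in the unselected input library; frequency after pTyr selection over input frequency; kinase dosed for 20-30% of maximal phosphorylation in three min.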

Sequence of EPHB1 (P54762 whole entry, looked up): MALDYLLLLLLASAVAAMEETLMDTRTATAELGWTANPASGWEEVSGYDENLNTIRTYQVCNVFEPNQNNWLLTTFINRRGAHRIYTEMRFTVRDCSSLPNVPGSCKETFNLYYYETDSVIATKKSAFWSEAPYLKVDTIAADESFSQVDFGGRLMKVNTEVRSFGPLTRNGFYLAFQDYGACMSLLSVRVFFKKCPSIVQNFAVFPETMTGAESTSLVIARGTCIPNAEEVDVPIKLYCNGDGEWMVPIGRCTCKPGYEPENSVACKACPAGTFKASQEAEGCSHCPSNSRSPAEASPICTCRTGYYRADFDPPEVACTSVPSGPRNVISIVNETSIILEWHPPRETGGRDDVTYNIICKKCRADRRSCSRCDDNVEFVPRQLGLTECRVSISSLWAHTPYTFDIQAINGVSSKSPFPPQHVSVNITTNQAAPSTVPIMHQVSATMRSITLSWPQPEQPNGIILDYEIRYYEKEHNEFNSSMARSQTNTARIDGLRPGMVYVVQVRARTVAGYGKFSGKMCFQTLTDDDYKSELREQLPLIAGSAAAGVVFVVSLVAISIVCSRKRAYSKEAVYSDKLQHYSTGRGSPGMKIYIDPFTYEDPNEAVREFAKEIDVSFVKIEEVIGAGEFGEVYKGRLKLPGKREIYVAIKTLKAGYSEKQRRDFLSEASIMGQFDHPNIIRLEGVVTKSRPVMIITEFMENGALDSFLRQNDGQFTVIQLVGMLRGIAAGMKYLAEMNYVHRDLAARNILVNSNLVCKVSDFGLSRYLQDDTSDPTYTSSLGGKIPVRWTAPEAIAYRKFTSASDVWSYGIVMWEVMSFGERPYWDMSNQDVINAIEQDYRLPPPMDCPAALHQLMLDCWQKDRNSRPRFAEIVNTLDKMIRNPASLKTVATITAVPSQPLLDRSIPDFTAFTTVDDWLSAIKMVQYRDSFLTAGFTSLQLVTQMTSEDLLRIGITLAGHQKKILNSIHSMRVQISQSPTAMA
Sequence of FGFR3 (P22607 whole entry, looked up): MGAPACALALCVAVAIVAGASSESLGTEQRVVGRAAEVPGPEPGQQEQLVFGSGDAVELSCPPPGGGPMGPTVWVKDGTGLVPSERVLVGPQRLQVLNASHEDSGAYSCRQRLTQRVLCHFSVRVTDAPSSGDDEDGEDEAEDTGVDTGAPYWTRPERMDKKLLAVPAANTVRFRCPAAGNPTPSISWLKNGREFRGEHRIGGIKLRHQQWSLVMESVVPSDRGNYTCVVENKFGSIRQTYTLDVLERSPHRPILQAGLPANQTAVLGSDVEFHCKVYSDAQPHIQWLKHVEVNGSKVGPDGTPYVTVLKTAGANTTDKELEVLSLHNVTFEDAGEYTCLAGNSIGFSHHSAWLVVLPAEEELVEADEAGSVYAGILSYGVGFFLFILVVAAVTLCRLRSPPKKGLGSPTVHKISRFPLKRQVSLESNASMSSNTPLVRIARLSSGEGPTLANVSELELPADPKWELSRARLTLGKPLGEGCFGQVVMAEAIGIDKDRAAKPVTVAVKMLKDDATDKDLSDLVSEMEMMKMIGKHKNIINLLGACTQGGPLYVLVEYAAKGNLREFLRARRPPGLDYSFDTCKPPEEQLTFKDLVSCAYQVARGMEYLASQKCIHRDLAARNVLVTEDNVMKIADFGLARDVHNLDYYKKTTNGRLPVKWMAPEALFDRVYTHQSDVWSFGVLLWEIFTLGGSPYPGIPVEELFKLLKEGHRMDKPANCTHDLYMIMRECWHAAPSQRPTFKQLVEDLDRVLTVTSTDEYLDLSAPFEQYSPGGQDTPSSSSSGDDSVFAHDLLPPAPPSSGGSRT

SH2 binding enrichment [14]: 15.5 | SH2 binding enrichment [15]: 0.501 | SH2 binding enrichment [16]: 4.88
Sequence: PFSNPYENSLI [EPOR_Y489_YF]
phosphorylation enrichment [1]: 1.92 | phosphorylation enrichment [2]: 0.92 | phosphorylation enrichment [3]: 0.929 | phosphorylation enrichment [4]: 0.964 | phosphorylation enrichment [5]: 1.02 | phosphorylation enrichment [6]: 2.23 | phosphorylation enrichment [7]: 1.48 | phosphorylation enrichment [8]: 1.04 | phosphorylation enrichment [9]: 0.848 | phosphorylation enrichment [10]: 3.41 | phosphorylation enrichment [11]: 0.675 | phosphorylation enrichment [12]: 1.18 | phosphorylation enrichment [13]: 1.01

SH2 binding enrichment [14]: 1.32 | SH2 binding enrichment [15]: 1.54 | SH2 binding enrichment [16]: 0.899
Sequence: PFTRNYYVWAV [CYBA_Y87_R90W]
phosphorylation enrichment [1]: 1.41 | phosphorylation enrichment [2]: 3.1 | phosphorylation enrichment [3]: 3.42 | phosphorylation enrichment [4]: 9.92 | phosphorylation enrichment [5]: 8.21 | phosphorylation enrichment [6]: 1.2 | phosphorylation enrichment [7]: 1.12 | phosphorylation enrichment [8]: 0.744 | phosphorylation enrichment [9]: 1.03 | phosphorylation enrichment [10]: 2.5 | phosphorylation enrichment [11]: 6.79 | phosphorylation enrichment [12]: 4.71 | phosphorylation enrichment [13]: 0.777

SH2 binding enrichment [14]: 0.728 | SH2 binding enrichment [15]: 0.592 | SH2 binding enrichment [16]: 0.366
Sequence: PGVDIYISPNM [PADI3_Y51]
phosphorylation enrichment [1]: 1.64 | phosphorylation enrichment [2]: 1.17 | phosphorylation enrichment [3]: 0.973 | phosphorylation enrichment [4]: 1.67 | phosphorylation enrichment [5]: 1.11 | phosphorylation enrichment [6]: 0.814 | phosphorylation enrichment [7]: 1.8 | phosphorylation enrichment [8]: 1.02 | phosphorylation enrichment [9]: 1.38 | phosphorylation enrichment [10]: 1.75 | phosphorylation enrichment [11]: 0.534 | phosphorylation enrichment [12]: 1.68 | phosphorylation enrichment [13]: 0.894

SH2 binding enrichment [14]: 0.974 | SH2 binding enrichment [15]: 0.717 | SH2 binding enrichment [16]: 0.555
Sequence: PHMQTYEVDPN [SDHB_Y61_L65P]
phosphorylation enrichment [1]: 1.19 | phosphorylation enrichment [2]: 0.782 | phosphorylation enrichment [3]: 0.628 | phosphorylation enrichment [4]: 0.511 | phosphorylation enrichment [5]: 0.761 | phosphorylation enrichment [6]: 0.758 | phosphorylation enrichment [7]: 1.49 | phosphorylation enrichment [8]: 0.586 | phosphorylation enrichment [9]: 0.791 | phosphorylation enrichment [10]: 1.04 | phosphorylation enrichment [11]: 0.522 | phosphorylation enrichment [12]: 0.932 | phosphorylation enrichment [13]: 1.35

SH2 binding enrichment [14]: 0.641 | SH2 binding enrichment [15]: 0.709 | SH2 binding enrichment [16]: 0.75
Sequence: PLGPLYASSNP [INSR_Y992]
phosphorylation enrichment [1]: 0.96 | phosphorylation enrichment [2]: 1.14 | phosphorylation enrichment [3]: 1.01 | phosphorylation enrichment [4]: 0.683 | phosphorylation enrichment [5]: 0.742 | phosphorylation enrichment [6]: 1.82 | phosphorylation enrichment [7]: 1.65 | phosphorylation enrichment [8]: 1.27 | phosphorylation enrichment [9]: 4.49 | phosphorylation enrichment [10]: 0.941 | phosphorylation enrichment [11]: 1.49 | phosphorylation enrichment [12]: 1.47 | phosphorylation enrichment [13]: 1.35

SH2 binding enrichment [14]: 0.862 | SH2 binding enrichment [15]: 0.645 | SH2 binding enrichment [16]: 0.46
Sequence: PLGVPYLDKPP [JMJD7_Y31_A28G]
phosphorylation enrichment [1]: 0.955 | phosphorylation enrichment [2]: 0.901 | phosphorylation enrichment [3]: 0.794 | phosphorylation enrichment [4]: 0.6 | phosphorylation enrichment [5]: 0.825 | phosphorylation enrichment [6]: 0.574 | phosphorylation enrichment [7]: 1.64 | phosphorylation enrichment [8]: 0.679 | phosphorylation enrichment [9]: 0.463 | phosphorylation enrichment [10]: 1.55 | phosphorylation enrichment [11]: 0.942 | phosphorylation enrichment [12]: 1.57 | phosphorylation enrichment [13]: 0.909

SH2 binding enrichment [14]: 0.896 | SH2 binding enrichment [15]: 0.711 | SH2 binding enrichment [16]: 0.46
Sequence: PLRADYLIARV [HLCS_Y635]
phosphorylation enrichment [1]: 0.777 | phosphorylation enrichment [2]: 0.312 | phosphorylation enrichment [3]: 0.487 | phosphorylation enrichment [4]: 0.8 | phosphorylation enrichment [5]: 0.495 | phosphorylation enrichment [6]: 0.515 | phosphorylation enrichment [7]: 1.1 | phosphorylation enrichment [8]: 0.319 | phosphorylation enrichment [9]: 0.461 | phosphorylation enrichment [10]: 0.747 | phosphorylation enrichment [11]: 0.717 | phosphorylation enrichment [12]: 0.853 | phosphorylation enrichment [13]: 0.582

SH2 binding enrichment [14]: 1.67 | SH2 binding enrichment [15]: 1.69 | SH2 binding enrichment [16]: 1.62
Sequence: PLRAYYLIARV [HLCS_Y635_D634Y]
phosphorylation enrichment [1]: 1.17 | phosphorylation enrichment [2]: 0.543 | phosphorylation enrichment [3]: 0.726 | phosphorylation enrichment [4]: 1.2 | phosphorylation enrichment [5]: 1.31 | phosphorylation enrichment [6]: 0.732 | phosphorylation enrichment [7]: 1.12 | phosphorylation enrichment [8]: 0.571 | phosphorylation enrichment [9]: 0.415 | phosphorylation enrichment [10]: 1.71 | phosphorylation enrichment [11]: 0.636 | phosphorylation enrichment [12]: 0.865 | phosphorylation enrichment [13]: 0.362

SH2 binding enrichment [14]: 0.699 | SH2 binding enrichment [15]: 0.543 | SH2 binding enrichment [16]: 1.37
Sequence: PPPPAYDDMAQ [TNK2_Y635_V638M]
phosphorylation enrichment [1]: 1.25 | phosphorylation enrichment [2]: 0.441 | phosphorylation enrichment [3]: 0.632 | phosphorylation enrichment [4]: 0.492 | phosphorylation enrichment [5]: 0.762 | phosphorylation enrichment [6]: 0.551 | phosphorylation enrichment [7]: 1.04 | phosphorylation enrichment [8]: 0.544 | phosphorylation enrichment [9]: 0.647 | phosphorylation enrichment [10]: 1.14 | phosphorylation enrichment [11]: 0.675 | phosphorylation enrichment [12]: 0.597 | phosphorylation enrichment [13]: 0.526

SH2 binding enrichment [14]: 0.998 | SH2 binding enrichment [15]: 0.716 | SH2 binding enrichment [16]: 0.666
Sequence: PQGVGYPPQPQ [EP300_Y2219_Q2223P]
phosphorylation enrichment [1]: 0.972 | phosphorylation enrichment [2]: 0.503 | phosphorylation enrichment [3]: 0.53 | phosphorylation enrichment [4]: 0.695 | phosphorylation enrichment [5]: 0.569 | phosphorylation enrichment [6]: 0.815 | phosphorylation enrichment [7]: 0.904 | phosphorylation enrichment [8]: 0.564 | phosphorylation enrichment [9]: 0.571 | phosphorylation enrichment [10]: 0.926 | phosphorylation enrichment [11]: 0.74 | phosphorylation enrichment [12]: 0.931 | phosphorylation enrichment [13]: 0.802

SH2 binding enrichment [14]: 1 | SH2 binding enrichment [15]: 0.621 | SH2 binding enrichment [16]: 0.484
Sequence: PRPAGYPSTVS [CACNA1C_Y1832]
phosphorylation enrichment [1]: 0.458 | phosphorylation enrichment [2]: 0.327 | phosphorylation enrichment [3]: 0.413 | phosphorylation enrichment [4]: 0.333 | phosphorylation enrichment [5]: 0.446 | phosphorylation enrichment [6]: 0.331 | phosphorylation enrichment [7]: 0.493 | phosphorylation enrichment [8]: 0.43 | phosphorylation enrichment [9]: 0.251 | phosphorylation enrichment [10]: 0.55 | phosphorylation enrichment [11]: 0.363 | phosphorylation enrichment [12]: 0.653 | phosphorylation enrichment [13]: 0.735

SH2 binding enrichment [14]: 1.08 | SH2 binding enrichment [15]: 0.906 | SH2 binding enrichment [16]: 0.769
Sequence: PRSRSYFSTSI [REPS2_Y462_S463F]
phosphorylation enrichment [1]: 0.623 | phosphorylation enrichment [2]: 0.478 | phosphorylation enrichment [3]: 0.797 | phosphorylation enrichment [4]: 0.457 | phosphorylation enrichment [5]: 0.574 | phosphorylation enrichment [6]: 0.436 | phosphorylation enrichment [7]: 0.791 | phosphorylation enrichment [8]: 0.468 | phosphorylation enrichment [9]: 0.691 | phosphorylation enrichment [10]: 0.635 | phosphorylation enrichment [11]: 0.496 | phosphorylation enrichment [12]: 0.452 | phosphorylation enrichment [13]: 0.677

SH2 binding enrichment [14]: 0.812 | SH2 binding enrichment [15]: 0.621 | SH2 binding enrichment [16]: 3.8
Sequence: PSAEGYQDVRD [ABLIM1_Y439]
phosphorylation enrichment [1]: 1.15 | phosphorylation enrichment [2]: 0.656 | phosphorylation enrichment [3]: 0.649 | phosphorylation enrichment [4]: 0.571 | phosphorylation enrichment [5]: 0.699 | phosphorylation enrichment [6]: 0.634 | phosphorylation enrichment [7]: 1.08 | phosphorylation enrichment [8]: 0.689 | phosphorylation enrichment [9]: 0.545 | phosphorylation enrichment [10]: 0.873 | phosphorylation enrichment [11]: 0.348 | phosphorylation enrichment [12]: 0.688 | phosphorylation enrichment [13]: 0.492

SH2 binding enrichment [14]: 1.77 | SH2 binding enrichment [15]: 1.52 | SH2 binding enrichment [16]: 1.73
Sequence: PSDPSYEDTRE [BMPR1A_Y467_M470T]
phosphorylation enrichment [1]: 1.66 | phosphorylation enrichment [2]: 0.765 | phosphorylation enrichment [3]: 0.883 | phosphorylation enrichment [4]: 0.813 | phosphorylation enrichment [5]: 1.18 | phosphorylation enrichment [6]: 0.894 | phosphorylation enrichment [7]: 2.73 | phosphorylation enrichment [8]: 0.887 | phosphorylation enrichment [9]: 1.19 | phosphorylation enrichment [10]: 2.37 | phosphorylation enrichment [11]: 0.827 | phosphorylation enrichment [12]: 1.71 | phosphorylation enrichment [13]: 1.14

Sequence: PSQRRYVYYYS [PTEN_Y174]
phosphorylation enrichment [1]: 0.958 | phosphorylation enrichment [2]: 0.57 | phosphorylation enrichment [3]: 0.459 | phosphorylation enrichment [4]: 2.08 | phosphorylation enrichment [5]: 0.785 | phosphorylation enrichment [6]: 0.503 | phosphorylation enrichment [7]: 1.08 | phosphorylation enrichment [8]: 0.648 | phosphorylation enrichment [9]: 0.497 | phosphorylation enrichment [10]: 1.13 | phosphorylation enrichment [11]: 2.42 | phosphorylation enrichment [12]: 1.21 | phosphorylation enrichment [13]: 0.872 | SH2 binding enrichment [14]: 1.55 | SH2 binding enrichment [15]: 4.7 | SH2 binding enrichment [16]: 2.25

SH2 binding enrichment [14]: 0.825 | SH2 binding enrichment [15]: 0.951 | SH2 binding enrichment [16]: 0.396
Sequence: PTTKTYFPHFD [HBA1_Y43]
phosphorylation enrichment [1]: 0.66 | phosphorylation enrichment [2]: 0.374 | phosphorylation enrichment [3]: 0.396 | phosphorylation enrichment [4]: 0.595 | phosphorylation enrichment [5]: 0.625 | phosphorylation enrichment [6]: 0.479 | phosphorylation enrichment [7]: 0.929 | phosphorylation enrichment [8]: 0.545 | phosphorylation enrichment [9]: 0.352 | phosphorylation enrichment [10]: 0.572 | phosphorylation enrichment [11]: 0.553 | phosphorylation enrichment [12]: 0.59 | phosphorylation enrichment [13]: 0.576

Reference: the supplement of paper PMC10065799, “High-throughput profiling of sequence recognition by tyrosine kinases and SH2 domains using bacterial peptide display” (eLife, 2023)
